± gives the uncertainty stated by the source.
Assay: self-splicing fitness, log relative to wild type (ln ratio); higher = more splicing; Tetrahymena group I intron in knt gene, E. coli kanamycin selection, DiMSum; sequences stand for … in CUCUCU…GGAGGGAAAAGUUAUCAGGCAUGCACCUGGUAGCUAGUCUUUAAACCAAUAGAUUGCAUCGGUUUAAAAGGCAAGACCGUCAAAUUGCGGGAAAGGGGUCAACAGCCGUUCAGUACCAAGUCUCAGGGGAAACUUUGAGAUGGCCUUGCAAAGGGUAUGGUAAUAAGCUGACGGACAUGGUCCUAACCACGCAGCCAAGUCCUAAGUCAACAGAUCUUCUGUUGAUAUGGAUGCAGUUCACAGACUAAAUGUCGGUCGGGGAAGAUGUAUUCUUCUCAUAAGAUAUAGUCGGACCUCUCCUUAAUGGGAGCUAGCGGAUGAAGUGAUGCAACACUGGAGCCGCUGGGAACUAAUUUGUAUGCGAAAGUAUAUUGAUUAGUUUUGGAGUACUCGUGGUCG
Procedure, shortened: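 Fitness was computed with DiMSum as the error-weighted combination of replicate fold changes, kanamycin versus none, each normalised to wild type. The library randomised all eight intron nucleotides of the P1ex region, with the intron placed in the knt kanamycin-resistance gene on pET-22b(+) in E. coli BL21(DE3). Six replicate transformations were grown overnight at 37°C or 30°C on LB agar with or without 25 μg/mL kanamycin, plus 100 μg/mL carbenicillin, 50 μM IPTG and 0.2% rhamnose. Pooled colonies were amplicon-sequenced on an Illumina HiSeq 2500.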

| Sequence | self-splicing fitness (ln) (30 °C) | self-splicing fitness (ln) (37 °C) |
| --- | --- | --- |
| CCCCAGCAAUAUUACGUGAC | -2.7 ± 0.11 | -3.24 ± 0.21 |
| CCCCAGCAAUAUUACGUGAU | -3.64 ± 0.11 | -2.96 ± 0.18 |
| CCCCAGCAAUAUUACGUGGU | -2.64 ± 0.1 | -2.98 ± 0.2 |
| CCCGAGCAAUAUUACGACCC | – | -0.219 ± 0.47 |
| CCCGAGCAAUAUUACGAGAA | -3.69 ± 0.43 | -2.1 ± 0.34 |
| CCCGAGCAAUAUUACGAGCU | -3.75 ± 0.17 | -2.69 ± 0.21 |
| CCCGAGCAAUAUUACGAUCU | -3.09 ± 0.19 | -2.68 ± 0.23 |
| CCCGAGCAAUAUUACGCACA | -2.87 ± 0.27 | -1.68 ± 0.32 |
| CCCGAGCAAUAUUACGCCAU | -3.53 ± 0.35 | -2.44 ± 0.33 |
| CCCGAGCAAUAUUACGCCGU | -3.61 ± 0.32 | -2.69 ± 0.32 |
| CCCGAGCAAUAUUACGCGAA | – | -3.31 ± 0.21 |
| CCCGAGCAAUAUUACGCGAG | -5.08 ± 0.41 | -2.46 ± 0.18 |
| CCCGAGCAAUAUUACGCGGG | -3.54 ± 0.17 | -3.45 ± 0.3 |
| CCCGAGCAAUAUUACGGAGA | -3.28 ± 0.14 | -1.36 ± 0.11 |
| CCCGAGCAAUAUUACGGCGU | -2.83 ± 0.13 | -1.71 ± 0.13 |
| CCCGAGCAAUAUUACGGGGA | -3.49 ± 0.21 | -2.14 ± 0.11 |
| CCCGAGCAAUAUUACGGGUG | -3.42 ± 0.18 | -1.7 ± 0.12 |
| CCCGAGCAAUAUUACGGUUU | -3.14 ± 0.11 | -1.96 ± 0.12 |
| CCCGAGCAAUAUUACGUAAA | -3.27 ± 0.15 | -2.94 ± 0.2 |
| CCCGAGCAAUAUUACGUAGA | -3.94 ± 0.3 | -2.92 ± 0.24 |
| CCCGAGCAAUAUUACGUGCU | -3.55 ± 0.21 | -1.32 ± 0.16 |
| CCCGAGCAAUAUUACGUGGC | – | -3.58 ± 0.25 |
| CCCGAGCAAUAUUACGUGGG | -3.97 ± 0.19 | -2.79 ± 0.19 |
| CCCUAGCAAUAUUACGAAGA | -2.34 ± 0.21 | -2.67 ± 0.26 |
| CCCUAGCAAUAUUACGAGAA | -2.85 ± 0.45 | -2.67 ± 0.44 |
| CCCUAGCAAUAUUACGAGAC | -3.85 ± 0.22 | -2.69 ± 0.34 |

| Sequence | self-splicing fitness (ln) (30 °C) | self-splicing fitness (ln) (37 °C) |
| --- | --- | --- |
| CCCUAGCAAUAUUACGAGCA | -2.64 ± 0.21 | -3.08 ± 0.18 |
| CCCUAGCAAUAUUACGCACA | -2.5 ± 0.14 | -1.97 ± 0.15 |
| CCCUAGCAAUAUUACGCCCC | -3.88 ± 0.37 | -3.05 ± 0.47 |
| CCCUAGCAAUAUUACGCCCG | -3.81 ± 0.37 | -2.12 ± 0.37 |
| CCCUAGCAAUAUUACGCGGA | -1.29 ± 0.12 | -0.827 ± 0.1 |
| CCCUAGCAAUAUUACGCUCU | -4.04 ± 0.28 | -1.45 ± 0.2 |
| CCCUAGCAAUAUUACGGAAC | -4.39 ± 0.43 | -2.85 ± 0.4 |
| CCCUAGCAAUAUUACGGAGC | -3.31 ± 0.21 | -2.22 ± 0.23 |
| CCCUAGCAAUAUUACGGCAC | -3.42 ± 0.21 | -1.5 ± 0.2 |
| CCCUAGCAAUAUUACGGCCG | -2.29 ± 0.36 | -1.62 ± 0.34 |
| CCCUAGCAAUAUUACGGCGU | -2.1 ± 0.15 | -2.35 ± 0.17 |
| CCCUAGCAAUAUUACGGGCA | -2.16 ± 0.22 | -1.55 ± 0.2 |
| CCCUAGCAAUAUUACGGGUA | -2.41 ± 0.14 | -3.01 ± 0.19 |
| CCCUAGCAAUAUUACGGGUU | -4.16 ± 0.17 | -2.39 ± 0.15 |
| CCCUAGCAAUAUUACGUAGA | -4.06 ± 0.26 | -3.05 ± 0.26 |
| CCGAAGCAAUAUUACGAAAU | -4.57 ± 0.29 | -1.9 ± 0.2 |
| CCGAAGCAAUAUUACGAAGA | -3.27 ± 0.39 | – |
| CCGAAGCAAUAUUACGAAGC | – | -1.59 ± 0.24 |
| CCGAAGCAAUAUUACGACGG | -3.76 ± 0.27 | -3.11 ± 0.29 |
| CCGAAGCAAUAUUACGACUU | -2.97 ± 0.22 | -3.91 ± 0.39 |
| CCGAAGCAAUAUUACGAUCA | -2.35 ± 0.13 | -0.736 ± 0.14 |
| CCGAAGCAAUAUUACGAUUA | -2.53 ± 0.14 | -2.31 ± 0.2 |
| CCGAAGCAAUAUUACGCAGC | -3.49 ± 0.23 | -2.36 ± 0.37 |
| CCGAAGCAAUAUUACGCCAG | -1.32 ± 0.11 | -0.531 ± 0.13 |
| CCGAAGCAAUAUUACGCGCA | -2.85 ± 0.28 | -1.95 ± 0.21 |
| CCGAAGCAAUAUUACGCGGA | -3.61 ± 0.43 | -1.78 ± 0.19 |

| Sequence | self-splicing fitness (ln) (30 °C) | self-splicing fitness (ln) (37 °C) |
| --- | --- | --- |
| CCGAAGCAAUAUUACGCGGU | -3.64 ± 0.22 | -2.11 ± 0.2 |
| CCGAAGCAAUAUUACGGCCU | -3.94 ± 0.36 | -2.02 ± 0.33 |
| CCGAAGCAAUAUUACGGGGG | -4.9 ± 0.46 | -2.26 ± 0.33 |
| CCGAAGCAAUAUUACGUAUU | -4.74 ± 0.29 | -3.35 ± 0.2 |
| CCGAAGCAAUAUUACGUGCA | -3.4 ± 0.3 | – |
| CCGAAGCAAUAUUACGUGCU | -4 ± 0.24 | -2.88 ± 0.28 |
| CCGAAGCAAUAUUACGUGGC | -3.27 ± 0.19 | -2.61 ± 0.34 |
| CCGAAGCAAUAUUACGUUAA | – | -0.989 ± 0.23 |
| CCGAAGCAAUAUUACGUUCA | -2.76 ± 0.16 | -0.988 ± 0.23 |
| CCGCAGCAAUAUUACGAAGU | -3.34 ± 0.31 | -2.5 ± 0.33 |
| CCGCAGCAAUAUUACGACGU | -3.96 ± 0.21 | -2.38 ± 0.22 |
| CCGCAGCAAUAUUACGAGUA | -3.31 ± 0.24 | -2.82 ± 0.28 |
| CCGCAGCAAUAUUACGAUUG | -0.997 ± 0.085 | -0.816 ± 0.09 |
| CCGCAGCAAUAUUACGCAAA | -3.29 ± 0.21 | -2.15 ± 0.22 |
| CCGCAGCAAUAUUACGCAGU | -2.96 ± 0.18 | -1.48 ± 0.17 |
| CCGCAGCAAUAUUACGCAUA | -3.34 ± 0.19 | -2.31 ± 0.17 |
| CCGCAGCAAUAUUACGCCCU | -3.34 ± 0.47 | 0.196 ± 0.3 |
| CCGCAGCAAUAUUACGCCGU | -3.34 ± 0.27 | -2.26 ± 0.22 |
| CCGCAGCAAUAUUACGGCAA | -2.74 ± 0.24 | -2.53 ± 0.22 |
| CCGCAGCAAUAUUACGGCGA | -1.15 ± 0.084 | -0.544 ± 0.085 |
| CCGCAGCAAUAUUACGGCGC | – | -0.961 ± 0.22 |
| CCGCAGCAAUAUUACGGUCA | -3.47 ± 0.29 | -2.46 ± 0.3 |
| CCGCAGCAAUAUUACGUACU | -4.17 ± 0.33 | -3.33 ± 0.4 |
| CCGCAGCAAUAUUACGUCCU | -3.12 ± 0.18 | -1.39 ± 0.17 |
| CCGCAGCAAUAUUACGUCUU | -3.69 ± 0.37 | -3.07 ± 0.24 |

— the supplement of paper PMC7877785
